Patent US20220289843A1 (ELPIS BIOPHARMACEUTICALS, published 2022)
Blank lines part the entries; values can stand above or below the molecule they belong to.

Tests used:
[1] = target: endogenous CD19 expressed on cell surface (Daudi cells, Raji cells, DLBCL tissue) (UniProt P15391); assay: FACS on Raji cells, secondary reagent alone (background)
human CD3ε/Fc = target: T1, human CD3ε/Fc (human, UniProt P07766 23-126, limits assumed); assay: ELISA, human CD3ε/Fc immobilised, BiTE serially diluted
T1 construct: Immobilised on the ELISA plate at 2 ug/mL; not shown: Fc
T1 sequence (P07766 23-126 limits assumed): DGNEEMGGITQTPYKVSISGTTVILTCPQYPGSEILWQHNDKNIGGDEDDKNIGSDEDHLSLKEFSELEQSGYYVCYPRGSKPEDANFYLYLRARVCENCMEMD
Description: Further, an ELISA assay was developed to determine the EC50 of anti-CD19/CD3 BiTE antibodies. Briefly, 384 well plate was immobilized with human CD3ε/Fc at final concentration of 2 μg/mL in 1×PBS in total volume of 25 uL per well. The plate was incubated overnight at 4° C. followed by blocking with 80 uL of superblock per well for 1 hour. Anti-CD19/CD3 BiTE proteins were serial diluted, and 25 μL was added to CD3ε immobilized wells and incubated for 1 hour with shaking. The CD3ε binding was detected by adding 25 μL of anti-Flag HRP diluted at 1:5000 in 1×PBST. In between each step, the plate was washed 3 times with 1×PBST in a plate washer. The plate was then developed with 20 μL of TMB substrate for 5 mins and stopped by adding 20 μL of 2N sulfuric acid. The plate was read at OD450 nm Biotek plate reader and then plotted in Prism 8.1 software.

[2] = target: T2, endogenous CD19 expressed on cell surface (Daudi cells, Raji cells, DLBCL tissue) (UniProt P15391 20-556, limits assumed); assay: FACS on Raji cells, anti-His biotin/streptavidin Alexa 647 detection
T2 construct: whole, on cells; also called CD19+ Raji cells; CD19-positive DLBCL tissue
T2 sequence (looked up): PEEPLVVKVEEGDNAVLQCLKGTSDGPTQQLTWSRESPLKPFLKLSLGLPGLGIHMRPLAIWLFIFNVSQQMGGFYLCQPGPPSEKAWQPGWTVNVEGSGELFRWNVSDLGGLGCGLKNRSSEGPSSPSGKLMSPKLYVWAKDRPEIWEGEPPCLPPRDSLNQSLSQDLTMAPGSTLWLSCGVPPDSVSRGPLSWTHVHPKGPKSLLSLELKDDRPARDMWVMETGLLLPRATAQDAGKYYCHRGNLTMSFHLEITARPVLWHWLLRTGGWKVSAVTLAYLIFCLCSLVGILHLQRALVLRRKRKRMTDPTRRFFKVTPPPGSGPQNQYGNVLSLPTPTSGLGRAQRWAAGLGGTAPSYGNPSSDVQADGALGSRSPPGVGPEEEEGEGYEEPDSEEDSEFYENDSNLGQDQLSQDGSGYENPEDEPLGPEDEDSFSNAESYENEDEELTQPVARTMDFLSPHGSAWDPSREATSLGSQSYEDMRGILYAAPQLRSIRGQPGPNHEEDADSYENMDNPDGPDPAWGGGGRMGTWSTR
Description: (§1) A solution containing 200 nM of purified anti-CD19/CD3 BiTE antibodies were serial diluted in full medium and incubated with Raji cells in 96 wells plate on ice for one hour. Cells were spun down at 1200 rpm for 5 minutes at 4° C. to remove primary antibodies. Cells were then washed once with 200 uL of full medium per well. Samples were detected with premixed anti-His Biotin Streptavidin Alexa fluor 647 by adding 100 uL of diluted secondary antibody and incubated at 4° C. for 30 minutes in the dark. Samples were spun down at 1200 rpm for 5 minutes at 4° C. and washed twice with 200 uL of 1×PBS per well. Reconstituted samples in 200 uL of 1× PBS and read on Attune NxT cytometer. Analysis was done by Attune NxT software plotting the overlay histogram of CD19 or CD3 binding with secondary antibodies.

[3] = target: T2, endogenous CD19 expressed on cell …; assay: FACS on CD19+ Raji cells, BiTE serially diluted from 200 nM; CD19+ Raji cells, FACS
Description: as §1

[4] = target: T3, CD3 on CD3+ Jurkat T cells (Homo sapiens (Human), UniProt P07766 23-207); assay: FACS on CD3+ Jurkat cells, anti-His biotin/streptavidin Alexa Fluor 647, positive cell counts
T3 construct: also called CD3+ Jurkat cells
T3 sequence (P07766 23-207 limits assumed): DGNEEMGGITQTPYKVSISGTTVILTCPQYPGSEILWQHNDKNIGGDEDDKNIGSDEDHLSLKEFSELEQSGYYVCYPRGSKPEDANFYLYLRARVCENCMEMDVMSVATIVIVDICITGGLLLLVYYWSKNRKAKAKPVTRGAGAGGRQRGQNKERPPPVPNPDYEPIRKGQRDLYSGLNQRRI
Description: as §1
A similarly FACS assay was performed to examine the binding activity of the exemplary bispecific anti-CD19/anti-CD3 antibodies to CD3+ Jurkat T cells, following the descriptions above.

[5] = target: T2, endogenous CD19 expressed on cell …; assay: FACS on CD19+ Raji cells, BiTE serially diluted from 200 nM
Description: as §1

[6] = target: T4, full-length human CD19 fused with flag and Myc tags at the C-terminus, expressed on HEK293 or K562 cells (human, UniProt P15391 20-556); assay: FACS on CD19/HEK293 cells, scFv titration, anti-His Alexa 488 detection
T4 construct: whole, on cells; also called CD19/HEK293 cells; CD19-expressing HEK293 cells; not shown: C-terminal flag and Myc tags (pCMV6-Entry vector)
T4 sequence (looked up): T2 sequence (looked up)
Description: The diluted samples were incubated with CD19-expressing HEK293 cells (CD19/HEK293 cells) in 96 wells plate on ice for 1 hour. Cells were spun down at 1200 rpm for 5 minutes at 4° C. to remove unbound antibodies. Cells were then washed once with 200 μL of full medium per well. Samples were mixed with an Alexa fluor 488-conjugated anti-His antibody (secondary antibody, 100 μL, 1:1000 diluted) and incubated at 4° C. for 30 minutes in dark. Samples were then spun down at 1200 rpm for 5 minutes at 4° C. and washed twice with 200 uL of 1×PBS per well. The resultant samples were reconstituted in 200 uL of 1×PBS and read on Guava EasyCyte. Analysis was done by counting only Alexa Fluor 488-positive cells and then plotted in Prism 8.1 software.

[7] = target: T4, full-length human CD19 fused with flag …; assay: FACS titration on CD19/HEK293 cells, anti-His Alexa Fluor 488, positive cell counts; 20 nM FMC63 IgG present as competitor
Description: Purified anti-CD19 scFv antibodies were titrated from 100 nM with 2-fold serial dilution. […] Cells were spun down at 1200 rpm for 5 minutes at 4° C. Samples were mixed with an Alexa fluor 488-conjugated anti-His antibody (100 uL, 1:1000 diluted) and incubated at 4° C. for 30 minutes in the dark. The samples were spun down at 1200 rpm for 5 minutes at 4° C. and washed twice with 200 μL of 1×PBS per well. The resultant samples were then reconstituted in 200 uL of 1×PBS and read on Guava EasyCyte. Analysis was done by counting only Alexa Fluor 488-positive cells and then plotted in Prism 8.1 software.

- % Raji cells stained positive [1]: 1.3%
Molecule: secondary antibody control

- EC50 (human CD3ε/Fc): 5.57 nM
- % Raji cells stained positive [2]: ~92.3%
- EC50 [3]: 0.766 nM
- EC50 (read off the curve) [4]: ~0.8 nM
B1: BiTE EP381 (bispecific antibody)
chain: QVQLQQWGAGLLKPSETLSLTCAVYGGSFSGYYWTWIRQPPGKGLEWIGEINHGGSSNYNPSLKSRVTISVDTSKKQFSLNLNSVTAADTAVYYCARGLGYRSGWYEVENAFDIWGQGTMVTVSSGGGGSGGGGSGGGGSQPVLTQPPSVSVAPGQTARITCGGNKIESRSVHWYQQKPGQAPVLVVYDDGARPSGIPERLSGSNSGDTATLTISRVEPGDEADYYCQVWDGSSVIFGGGTKLTVLGGGGSEVQLVESGGGLVQPGGSLRLSCAASGFTFSTYAMNWVRQAPGKGLEWVGRIRSKYNNYATYYADSVKGRFTISRDDSKNTLYLQMNSLRAEDTAVYYCVRHGNFGDSYVSWFAYWGQGTLVTVSSGGGGSGGGGSGGGGSGGGGSQAVVTQEPSLTVSPGGTVTLTCGSSTGAVTTSNYANWVQQKPGKSPRGLIGGTNKRAPGVPARFSGSLLGGKAALTISGAQPEDEADYYCALWYSNHWVFGGGTKLTVLHHHHHH
notes: also called anti-CD19/anti-CD3 BiTE antibody

- EC50 (human CD3ε/Fc): 3.17 nM
- EC50 [5]: 0.846 nM
- % Raji cells stained positive [2]: ~80%
- EC50 (read off the curve) [4]: ~0.8 nM
B2: BiTE EP383 (bispecific antibody)
chain: EVQLVESGAEVKKPGASVKVSCKASGYTFTSYYMHWVRQAPGQGLEWMGIINPSGGSTSYAQKFQGRVTITADESTSTAYMELSSLRSEDTAVYYCAREGGYKDFDYWGQGTLVTVSSGGGGSGGGGSGGGGSDIVMTQSPSSLSASVGDRVTVTCRASQSIDTYLNWYQQKPGKAPKLLIYTASTLQSGVPSRFSGSGSGTDFTLTISSLQPEDFATYYCQQSYSAPRTFGQGTKVEIKGGGGSEVQLVESGGGLVQPGGSLRLSCAASGFTFSTYAMNWVRQAPGKGLEWVGRIRSKYNNYATYYADSVKGRFTISRDDSKNTLYLQMNSLRAEDTAVYYCVRHGNFGDSYVSWFAYWGQGTLVTVSSGGGGSGGGGSGGGGSGGGGSQAVVTQEPSLTVSPGGTVTLTCGSSTGAVTTSNYANWVQQKPGKSPRGLIGGTNKRAPGVPARFSGSLLGGKAALTISGAQPEDEADYYCALWYSNHWVFGGGTKLTVLHHHHHH
notes: as for B1

- EC50 (human CD3ε/Fc): 7.58 nM
- EC50 [5]: 3.81 nM
- % Raji cells stained positive [2]: ~81.1%
- EC50 (read off the curve) [4]: ~4 nM
B3: BiTE EP382 (bispecific antibody)
chain: QVQLVQSGGGVVQPGKSLRLSCAASGFPFSSYTMHWVRQPPGEGLEWVALISYDGRNLYYADSVKGRFTISRDNSYNSLYLQLSGLRAEDTALYYCARDINRDHFYGMDLWGPGTTVTVSSGGGGSGGGGSGGGGSSYELTQPPSVSVAPGQTARIPCGGTNIGSKGVHWYQQKPGQAPVLVIYYDHSRPSGIPERFSGSNSGNTAALTISRVEAGDEADYYCQVWEGTSDHPVFGGGTKLTVLGGGGSEVQLVESGGGLVQPGGSLRLSCAASGFTFSTYAMNWVRQAPGKGLEWVGRIRSKYNNYATYYADSVKGRFTISRDDSKNTLYLQMNSLRAEDTAVYYCVRHGNFGDSYVSWFAYWGQGTLVTVSSGGGGSGGGGSGGGGSGGGGSQAVVTQEPSLTVSPGGTVTLTCGSSTGAVTTSNYANWVQQKPGKSPRGLIGGTNKRAPGVPARFSGSLLGGKAALTISGAQPEDEADYYCALWYSNHWVFGGGTKLTVLHHHHHH
notes: as for B1

- EC50 [6]: 1.26 nM
B4: 2018EP188-B10 (scFv, VH-VL orientation) (scFv)
scFv: QVQLVQSGGGVVQPGKSLRLSCAASGFPFSSYTMHWVRQPPGEGLEWVALISYDGRNLYYADSVKGRFTISRDNSYNSLYLQLSGLRAEDTALYYCARDINRDHFYGMDLWGPGTTVTVSSGGGGSGGGGSGGGGSSYELTQPPSVSVAPGQTARIPCGGTNIGSKGVHWYQQKPGQAPVLVIYYDHSRPSGIPERFSGSNSGNTAALTISRVEAGDEADYYCQVWEGTSDHPVFGGGTKLTVL
notes: Purified from E. coli periplasmic expression; not shown: C-terminal flag and 6xHIS tag

- EC50 [6]: 0.751 nM
- EC50 (read off the curve) [7]: 1.6 to 3 nM
B5: 2018EP187-A12 (scFv, VH-VL orientation) (scFv)
scFv: QVQLQQWGAGLLKPSETLSLTCAVYGGSFSGYYWTWIRQPPGKGLEWIGEINHGGSSNYNPSLKSRVTISVDTSKKQFSLNLNSVTAADTAVYYCARGLGYRSGWYEVENAFDIWGQGTMVTVSSGGGGSGGGGSGGGGSQPVLTQPPSVSVAPGQTARITCGGNKIESRSVHWYQQKPGQAPVLVVYDDGARPSGIPERLSGSNSGDTATLTISRVEPGDEADYYCQVWDGSSVIFGGGTKLTVL
notes: Purified from E. coli periplasmic expression (pET22b); fully human scFv from mRNA display; also called 2018EP187-Al2; not shown: C-terminal flag and 6xHIS tag

- EC50 [6]: 7.18 nM
B6: 2018EP142-D09 (scFv, VH-VL orientation) (scFv)
scFv: EVQLVESGAEVKKPGASVKVSCKASGYTFTSYYMHWVRQAPGQGLEWMGIINPSGGSTSYAQKFQGRVTITADESTSTAYMELSSLRSEDTAVYYCAREGGYKDFDYWGQGTLVTVSSGGGGSGGGGSGGGGSDIVMTQSPSSLSASVGDRVTVTCRASQSIDTYLNWYQQKPGKAPKLLIYTASTLQSGVPSRFSGSGSGTDFTLTISSLQPEDFATYYCQQSYSAPRTFGQGTKVEIK
notes: Purified from E. coli periplasmic expression; also called EP142-D9; not shown: C-terminal flag and 6xHIS tag
